In publication PMC5021983:

Columns and labels:
Assay in all cases: FRET titration
MeCP2 (human) = conditions: EMSA: 5 nM nucleosome, 130 mM NaCl, 10% glycerol, 10 mM Tris-HCl pH 8, 0.005% Tween 20, 0.5x TE, room temperature 3 min, 5% native PAGE in 0.3x TTE; FRET: 5 nM …
Gal4 = conditions: EMSA: 5 nM nucleosome, 130 mM NaCl, 10% glycerol, 10 mM Tris-HCl pH 8, 0.005% Tween 20, 0.5x TE, room temperature 3 min, 5% native PAGE in 0.3x TTE, FRET: 5 nM …
histone H1 (Drosophila) = conditions: EMSA: 5 nM nucleosome, 130 mM NaCl, 10% glycerol, 10 mM Tris-HCl pH 8, 0.005% Tween 20, 0.5x TE, room temperature 3 min, 5% native PAGE in 0.3x TTE; FRET: 5 nM …

## 601 mononucleosome with Gal4 site, 247 bp (FRET construct)
MeCP2 (human)
  K half: 20.7 nM
Gal4; no CAP, 5 nM nucleosome, Hill coefficient -3.76 ± 2.16
  K half: 3.06 nM
Gal4; nucleosome prebound with 25 nM MeCP2, Hill coefficient -1.47 ± 0.22
  K half: 12.2 nM
Histone H1 (Drosophila)
  K half: 12.1 nM
